The results in this text go back to paper PMC6018538, “The CYP71AZ P450 Subfamily: A Driving Factor for the Diversification of Coumarin Biosynthesis in Apiaceous Plants” (Frontiers in Plant Science, 2018).

The target of one data set is CYP71AZ4 (Pastinaca sativa, UniProt A0A2Z5D854). To be noted: read-out: Apparent affinity (μM) / CYP71AZ4; NADPH; product xanthotoxol.
The test system of a further data set is COc1ccc2oc(=O)ccc2c1. As to the kind of experiment: cells, lysate or membranes. To be noted: NADPH; product scopoletin (P04).
Another data set deals with COc1ccc2cc(C)c(=O)oc2c1. Kind of data set: cells, lysate or membranes. To be noted: NADPH; product 8-hydroxy-3-methyl-7-methoxycoumarin.
The next data set has as its system COc1cc2ccc(=O)oc2cc1O. As to the kind of experiment: cells, lysate or membranes. As to conditions: NADPH; product fraxetin.
Another data set concerns COc1ccc2ccc(=O)oc2c1. Kind of data set: cells, lysate or membranes. To be noted: NADPH; product daphnetin 7-methyl ether.
Substrate in data set [1]: O=c1ccc2cc(O)c(O)cc2o1
Kind of data set: cells, lysate or membranes. As to conditions: NADPH; product 6,7,8-trihydroxycoumarin.

Sequence of CYP71AZ4 (A0A2Z5D854 whole entry): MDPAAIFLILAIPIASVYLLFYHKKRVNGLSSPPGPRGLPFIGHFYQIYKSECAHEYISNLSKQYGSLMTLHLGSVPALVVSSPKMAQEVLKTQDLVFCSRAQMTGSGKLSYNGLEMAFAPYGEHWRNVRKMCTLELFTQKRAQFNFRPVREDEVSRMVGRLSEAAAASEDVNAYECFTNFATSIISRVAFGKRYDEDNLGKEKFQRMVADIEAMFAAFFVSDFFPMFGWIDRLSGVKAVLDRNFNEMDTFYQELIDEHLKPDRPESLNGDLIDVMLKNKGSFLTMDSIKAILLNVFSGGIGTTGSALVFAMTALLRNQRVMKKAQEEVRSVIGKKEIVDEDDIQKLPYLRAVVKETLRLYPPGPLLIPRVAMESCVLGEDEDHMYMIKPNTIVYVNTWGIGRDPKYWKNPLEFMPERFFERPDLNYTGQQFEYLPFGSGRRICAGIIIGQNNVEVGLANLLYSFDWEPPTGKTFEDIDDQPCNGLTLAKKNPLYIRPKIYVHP

`O=c1ccc2cc3ccoc3cc2o1` [psoralen]: the Km at CYP71AZ4 was determined as 11.3 ± 2.2 µM.
Take CYP71AZ4 (Pastinaca sativa): the Km in the data set with COc1ccc2oc(=O)ccc2c1 came out at 9.5 ± 1.5 µM; in the data set on COc1ccc2cc(C)c(=O)oc2c1, 159.9 ± 41.1 µM; with COc1cc2ccc(=O)oc2cc1O, 762.2 ± 586.4 µM; with COc1ccc2ccc(=O)oc2c1, 72.5 ± 15.2 µM.

B1: CYP71AZ3 (Pastinaca sativa) (protein)
chain: MEPVFLFLILAFPIASVYLLFYHKKRVVGLSAPPGPPGLPFIGNFHQLYKASSTHEYLWSLSKQYGSLVTLRMGSVPILVVSSPKMAKEVLQTQDLIYCSRPAMTGMQKLSYNGLDVAFSPYTDQWRHTRKFCTLELFTQKRAQLNFRPVREQEVSRMIARLSETAAASKDVNAYEWFSNLATCIISRVAFGKRYDEDGIGKERFQRMLSEIDAMFIGFFVSDFFPMFGWIDKLSGMRDRLDRTFKDLDMFYQELIDEHLKPNRLESPTEDLIDVMLKNEGSSLTKDSMKAILLNVFNGGTGTTATVLAWAMTALLRNQGVMKKAQEEIRSVIGKKGKVDEDDFPSLPYLRAVVKETMRLYPPAPVLVPRETMESSIIGEDKDHMYMVKPKTVVYISMWAIGRDPKTWKNPMEFVPERFLERPDINYKGQQFEYVPFGAGRRICAGINLGVTTVELALANLLYTFDWEPPAGMRFEDIDDETTNGLALQKKNALYIRPKKYMFP
On to B1, for which the Km in data set [1] stood at 248.6 ± 51.9 µM.
